Results on 1 molecule are retold here after article PMC7654431.

For this series, the target named is T7 DNA polymerase gp5;thioredoxin (trx) (bacteriophage T7;Escherichia coli, UniProt P00581;P0AA25 1-704;2-109, |). Kind of series: SEC-SAXS-MALS. Background: Size exclusion chromatography separates by hydrodynamic size, large species first.
Chain of T7 DNA polymerase gp5;thioredoxin (trx) (P00581 whole entry, chain 1 of 2): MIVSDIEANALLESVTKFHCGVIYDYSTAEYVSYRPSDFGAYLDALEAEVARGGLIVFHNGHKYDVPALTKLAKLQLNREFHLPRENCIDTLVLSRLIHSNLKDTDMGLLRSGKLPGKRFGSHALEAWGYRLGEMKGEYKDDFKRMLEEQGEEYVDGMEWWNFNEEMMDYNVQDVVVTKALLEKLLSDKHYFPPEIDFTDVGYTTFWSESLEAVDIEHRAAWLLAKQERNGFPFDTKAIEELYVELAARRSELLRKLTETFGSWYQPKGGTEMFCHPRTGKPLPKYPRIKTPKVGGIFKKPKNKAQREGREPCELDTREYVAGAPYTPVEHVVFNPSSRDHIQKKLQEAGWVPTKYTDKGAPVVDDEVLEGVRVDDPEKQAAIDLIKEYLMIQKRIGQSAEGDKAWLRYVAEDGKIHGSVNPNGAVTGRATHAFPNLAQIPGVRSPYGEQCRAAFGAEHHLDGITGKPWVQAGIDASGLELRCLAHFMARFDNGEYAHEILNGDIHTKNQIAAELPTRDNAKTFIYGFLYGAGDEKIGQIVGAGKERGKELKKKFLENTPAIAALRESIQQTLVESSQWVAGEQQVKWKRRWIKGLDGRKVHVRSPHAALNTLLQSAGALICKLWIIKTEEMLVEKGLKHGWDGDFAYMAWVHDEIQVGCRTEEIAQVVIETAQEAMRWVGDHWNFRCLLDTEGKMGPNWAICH
Chain of T7 DNA polymerase gp5;thioredoxin (trx) (P0AA25 2-109, chain 2 of 2): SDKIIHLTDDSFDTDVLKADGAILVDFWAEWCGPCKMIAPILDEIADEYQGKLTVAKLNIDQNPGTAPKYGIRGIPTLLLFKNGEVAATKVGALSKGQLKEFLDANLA

B1: SAXS primer/template (dsDNA)
DNA 1: TGGCAGGCAGGTGGTCTTGCCGGTC
DNA 2: GATCCCTCGACCGGCAAGACCACCTGCCTGCCA
modifications: 3'-terminal ddC on primer
As to B1, the binding result is “binds”.
